Patent US20200316233A1 (BOARD OF REGENTS OF THE UNIVERISTY OF NEBRASKA, published 2020)
Square brackets hold non-standard residues; d marks the D form. Ends that are not written are not given here.

Tests used:
[1] = target: T1, neurotensin receptor-1 (human, UniProt P30989 1-418); test: competition with 177Lu-N1 on HT-29 cells
T1 construct: whole, on cells; Endogenous receptor on the NTSR1-positive HT-29 human colon cancer cell line; also called NTR1; NTSR1
Procedure: (§1) The IC₅₀ for the unlabeled conjugates binding to the neurotensin receptors was determined using the HT-29 human colon cancer cell line. In these studies, ¹⁷⁷Lu-N1 (¹⁷⁷Lu-DOTA-β-Ala-[N-α-Me⁸, Dmt¹¹, Tle¹²]NT(6-13)), which was synthesized according to published methods (Jia, et al. (2015) Nucl. Med. Biol., 42:816), served as the competitive radioligand for comparing the relative binding affinities of the conjugates. […] At the end of the incubation, the cells were centrifuged, aspirated, and washed with fresh medium (5×500 μL). The cell-associated radioactivity was measured using gamma counter and the IC₅₀ values determined by nonlinear regression using GraphPad Prism 5. All measurements were in biological triplicate.

[2] = target: T1, neurotensin receptor-1; test: competitive binding to NTR1
Procedure: as §1

T1 sequence (P30989 whole entry): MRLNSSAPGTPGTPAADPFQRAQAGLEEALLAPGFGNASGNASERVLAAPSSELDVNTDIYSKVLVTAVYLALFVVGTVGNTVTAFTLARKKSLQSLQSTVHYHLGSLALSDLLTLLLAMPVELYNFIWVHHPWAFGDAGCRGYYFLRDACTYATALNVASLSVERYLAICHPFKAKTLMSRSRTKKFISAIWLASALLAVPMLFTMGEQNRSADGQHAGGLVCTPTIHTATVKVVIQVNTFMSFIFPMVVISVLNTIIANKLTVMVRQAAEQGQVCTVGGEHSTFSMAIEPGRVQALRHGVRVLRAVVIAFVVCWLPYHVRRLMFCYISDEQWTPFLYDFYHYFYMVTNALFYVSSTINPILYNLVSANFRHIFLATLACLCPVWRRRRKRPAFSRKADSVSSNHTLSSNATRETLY

| IC50 [1] | IC50 [2] | Binder |
| --- | --- | --- |
| 49 nM |  | KPRRPYIL (not fully specified; also: N-terminal DOTA, X linker PEG3, Y linker β-Ala, N-Me-Arg, Dmt, Tle building blocks, places not given here, matched control of 2c; also called compound 3a) [3a] |
| 52 nM |  | [dS][dS][dS]KPRRPYIL (not fully specified; also: N-terminal DOTA, X linker Gly-(D)Ser3, N-Me-Arg, Dmt, Tle building blocks, places not given here, matched control of 2f; also called compound 3b) [3b] |
|  | 63 nM | KPRRPYIL (not fully specified; also: DOTA on the peptide, linkers and non-natural residues not given here) [Ec] |
